B1: human prokineticin 1 (ligand, UniProt P58294 20-105, looked up)
chain: AVITGACERDVQCGAGTCCAISLWLRGLRMCTPLGREGEECHPGSHKVPFFRKRKHHTCPCLPNLLCSRFPDGRYRCSMDLKNINF
B2: human prokineticin 2 (ligand, UniProt Q9HC23-2 28-108, looked up)
chain: AVITGACDKDSQCGGGMCCAVSIWVKSIRICTPMGKLGDSCHPLTRKVPFFGRRMHHTCPCLPGLACLRTSFNRFICLAQK

Columns and labels:
Test in all cases: cell-based or functional assay
human PROKR1 (human) = human PROKR1 (human) (UniProt Q8TCW9)
[1] = target: rat PROKR1 (rat (Rattus norvegicus)) (UniProt Q8R416)
rat PROKR1 (rat (Rattus norvegicus)), sequence (Q8R416 whole entry): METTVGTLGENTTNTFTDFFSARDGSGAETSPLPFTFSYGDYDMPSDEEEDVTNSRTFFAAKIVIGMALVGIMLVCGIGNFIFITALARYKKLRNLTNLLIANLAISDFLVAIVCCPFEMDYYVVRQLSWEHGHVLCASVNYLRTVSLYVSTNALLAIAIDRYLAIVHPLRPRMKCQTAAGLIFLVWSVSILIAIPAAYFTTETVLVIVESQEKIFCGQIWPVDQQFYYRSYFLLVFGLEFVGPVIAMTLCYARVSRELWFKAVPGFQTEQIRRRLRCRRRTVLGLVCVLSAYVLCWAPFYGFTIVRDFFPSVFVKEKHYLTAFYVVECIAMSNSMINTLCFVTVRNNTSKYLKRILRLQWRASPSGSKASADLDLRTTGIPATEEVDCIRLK

[2] = target: mouse PROKR1 (mouse (Mus musculus)) (UniProt Q9JKL1)
mouse PROKR1 (mouse (Mus musculus)), sequence (Q9JKL1 whole entry): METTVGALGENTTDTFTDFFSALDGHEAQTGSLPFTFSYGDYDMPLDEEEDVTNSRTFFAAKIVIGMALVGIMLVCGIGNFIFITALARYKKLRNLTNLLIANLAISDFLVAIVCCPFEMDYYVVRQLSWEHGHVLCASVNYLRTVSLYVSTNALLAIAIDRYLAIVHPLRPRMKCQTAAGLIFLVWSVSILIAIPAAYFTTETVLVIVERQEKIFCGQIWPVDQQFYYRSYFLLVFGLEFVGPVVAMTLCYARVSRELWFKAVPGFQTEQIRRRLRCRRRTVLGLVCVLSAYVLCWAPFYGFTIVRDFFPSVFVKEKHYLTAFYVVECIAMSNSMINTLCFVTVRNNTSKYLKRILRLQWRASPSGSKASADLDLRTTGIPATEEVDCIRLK

[3] = target: cynomolgus monkey PROKR1 (cynomolgus monkey (Macaca fascicularis)) (UniProt G7PMD0)
cynomolgus monkey PROKR1 (cynomolgus monkey (Macaca fascicularis)), sequence (G7PMD0 entry or part of it): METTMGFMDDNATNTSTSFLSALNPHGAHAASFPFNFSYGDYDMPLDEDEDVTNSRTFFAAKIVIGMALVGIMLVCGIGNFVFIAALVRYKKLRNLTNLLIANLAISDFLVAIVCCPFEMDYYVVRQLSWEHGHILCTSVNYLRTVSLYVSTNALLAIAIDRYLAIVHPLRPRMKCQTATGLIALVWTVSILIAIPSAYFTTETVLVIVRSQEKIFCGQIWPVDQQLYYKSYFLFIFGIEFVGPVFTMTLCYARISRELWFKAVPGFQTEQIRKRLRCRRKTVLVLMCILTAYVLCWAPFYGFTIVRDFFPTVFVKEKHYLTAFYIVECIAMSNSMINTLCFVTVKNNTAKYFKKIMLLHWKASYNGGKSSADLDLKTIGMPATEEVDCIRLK

human PROKR1 (human), sequence (Q8TCW9 whole entry): as the sequence (G7PMD0 entry or part of it) above, with A22V, A31T, G40S, V82I, I135V, R210K, F246V, N348D, A350V counted along it

Binder	EC50 (nM), calcium mobilization, 293/hPROKR1, Experiment 1 (human PROKR1 (human)) [nM]	EC50 (nM), calcium mobilization, 293/hPROKR1, Experiment 2 (human PROKR1 (human)) [nM]	EC50 (nM), calcium mobilization, 293/hPROKR1, Experiment 3 (human PROKR1 (human)) [nM]	EC50, calcium flux, 293/rPROKR1, no antibody [1] [nM]	EC50, calcium flux, 293/mPROKR1, no antibody [2] [nM]	Ligand EC50 (nM), calcium flux, CHO/mPROKR1 (induced) [2] [nM]	Ligand EC50 (nM), calcium flux, CHO/mPROKR1 (non-induced) [2] [nM]	EC50 (nM), calcium mobilization, 293/mfPROKR1, Experiment 1 [3] [nM]	EC50 (nM), calcium mobilization, 293/mfPROKR1, Experiment 3 [3] [nM]
B1	6.2	14.3	2.2	0.7	0.9	1.5	8.3	69	5
B2	30.7		0.6			9.6	0.8		0.1
